Results from the supplement of paper PMC5998384.

Legend:
[1] = tested on: HeLa Kyoto; experiment: melting temperature (median over replicates), in situ; higher = more thermally stable
[2] = tested on: HeLa Kyoto; experiment: solubility change mitosis vs G1/S (difference of NP-40 vs SDS log2 ratios) (log2 ratio difference); higher = more soluble in mitosis
[3] = tested on: HeLa Kyoto; experiment: thermal stability score vs G1/S (z-score of summed log2 fold changes over temperatures); higher = more thermally stable than in G1/S
[4] = tested on: HeLa Kyoto; experiment: solubility in G1/S (NP-40 vs SDS abundance) (log2 ratio); higher = more soluble; conditions: cell cycle stage: G1/S
[5] = cell cycle stage: early G1 (4.5 h after nocodazole release)
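Wherever melting temperature (median over replicates), in situ is given: HeLa Kyoto cells synchronized by double thymidine or nocodazole block, proteins quantified by TMT10plex mass spectrometry, three independent biological replicates.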
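Wherever solubility change mitosis vs G1/S (difference of NP-40 vs SDS log2 ratios) is given: synchronized HeLa Kyoto cells (double thymidine block for G1/S, nocodazole release for mitosis), protein amounts in NP-40 versus SDS lysates quantified by mass spectrometry, three biological replicates.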
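Wherever solubility in G1/S (NP-40 vs SDS abundance) is given: HeLa Kyoto cells arrested at G1/S by double thymidine block, proteins quantified by TMT10plex mass spectrometry in mild NP-40 versus SDS extracts, three biological replicates.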
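Wherever thermal stability score vs G1/S (z-score of summed log2 fold changes over temperatures) is given: synchronized HeLa Kyoto cells, proteins quantified by TMT10plex mass spectrometry, three biological replicates, mitosis taken 0.5 h after nocodazole release, G1/S directly after double thymidine block.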

TANC1, sequence (chain, as listed by the source): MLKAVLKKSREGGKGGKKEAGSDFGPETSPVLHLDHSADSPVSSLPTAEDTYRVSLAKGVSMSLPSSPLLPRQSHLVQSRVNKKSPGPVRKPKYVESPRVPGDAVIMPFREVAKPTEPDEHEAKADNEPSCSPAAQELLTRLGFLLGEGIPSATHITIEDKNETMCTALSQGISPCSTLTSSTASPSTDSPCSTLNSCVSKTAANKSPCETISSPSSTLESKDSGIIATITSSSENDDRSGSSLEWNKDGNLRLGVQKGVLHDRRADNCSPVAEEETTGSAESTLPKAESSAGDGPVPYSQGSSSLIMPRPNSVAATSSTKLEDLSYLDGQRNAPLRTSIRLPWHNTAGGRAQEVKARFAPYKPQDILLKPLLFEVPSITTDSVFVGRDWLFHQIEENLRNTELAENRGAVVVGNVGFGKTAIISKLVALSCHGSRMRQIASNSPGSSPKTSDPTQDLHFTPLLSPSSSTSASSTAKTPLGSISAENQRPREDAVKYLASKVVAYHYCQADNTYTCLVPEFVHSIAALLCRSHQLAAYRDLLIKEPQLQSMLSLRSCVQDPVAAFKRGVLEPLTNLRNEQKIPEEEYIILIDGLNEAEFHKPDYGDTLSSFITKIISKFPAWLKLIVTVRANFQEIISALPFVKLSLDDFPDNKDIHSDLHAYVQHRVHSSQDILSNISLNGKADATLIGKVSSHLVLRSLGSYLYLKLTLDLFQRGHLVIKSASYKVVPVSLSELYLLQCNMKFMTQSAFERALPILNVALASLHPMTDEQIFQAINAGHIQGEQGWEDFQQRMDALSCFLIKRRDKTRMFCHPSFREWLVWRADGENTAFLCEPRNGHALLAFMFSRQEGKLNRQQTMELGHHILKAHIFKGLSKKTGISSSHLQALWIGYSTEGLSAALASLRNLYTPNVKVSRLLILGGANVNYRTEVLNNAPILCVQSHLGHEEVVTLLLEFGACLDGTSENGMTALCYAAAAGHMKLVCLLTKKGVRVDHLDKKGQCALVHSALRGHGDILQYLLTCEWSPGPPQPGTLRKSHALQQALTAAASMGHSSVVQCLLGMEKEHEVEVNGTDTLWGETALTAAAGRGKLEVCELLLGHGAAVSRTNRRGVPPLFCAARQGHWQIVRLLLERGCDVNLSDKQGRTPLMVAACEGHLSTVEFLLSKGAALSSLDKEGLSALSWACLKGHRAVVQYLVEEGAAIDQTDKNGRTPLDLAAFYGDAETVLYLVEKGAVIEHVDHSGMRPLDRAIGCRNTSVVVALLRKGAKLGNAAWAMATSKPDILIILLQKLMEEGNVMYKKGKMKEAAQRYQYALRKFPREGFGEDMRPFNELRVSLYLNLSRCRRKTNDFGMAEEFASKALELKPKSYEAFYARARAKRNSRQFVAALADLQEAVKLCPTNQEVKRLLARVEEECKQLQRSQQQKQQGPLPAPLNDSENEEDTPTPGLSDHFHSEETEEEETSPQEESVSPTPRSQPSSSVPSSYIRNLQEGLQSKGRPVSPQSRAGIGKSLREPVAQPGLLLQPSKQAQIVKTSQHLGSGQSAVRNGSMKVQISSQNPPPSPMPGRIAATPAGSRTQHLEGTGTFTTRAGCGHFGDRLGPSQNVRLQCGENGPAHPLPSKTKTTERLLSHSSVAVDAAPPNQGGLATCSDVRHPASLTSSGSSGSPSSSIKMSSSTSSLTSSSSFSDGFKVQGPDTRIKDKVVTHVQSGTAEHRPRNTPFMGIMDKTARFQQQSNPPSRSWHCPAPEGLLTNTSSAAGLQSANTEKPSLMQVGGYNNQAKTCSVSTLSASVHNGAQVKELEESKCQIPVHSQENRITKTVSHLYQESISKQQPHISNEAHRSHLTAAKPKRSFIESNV

| Substance | melting temperature ([1]; cell cycle stage: G1/S) | melting temperature ([1]; cell cycle stage: mitosis) | solubility change mitosis (log2) [2] | thermal stability score [3, 5] | thermal stability score ([3]; cell cycle stage: mitosis) | solubility in G1/S (log2) [4] |
| --- | --- | --- | --- | --- | --- | --- |
| MAQFGGQKNPPWATQFTATAVSQPAALGVQQPSLLGASPTIYTQQTALAAAGLTTQTPANYQLTQTAALQQQAAAAAAALQQQYSQPQQALYSVQQQLQQPQQTLLTQPAVALPTSLSLSTPQPTAQITVSYPTPRSSQQQTQPQKQRVFTGVVTKLHDTFGFVDEDVFFQLSAVKGKTPQVGDRVLVEATYNPNMPFKWNAQRIQTLPNQNQSQTQPLLKTPPAVLQPIAPQTTFGVQTQPQPQSLLQAQISAASITPLLQTQPQPLLQQPQQKAGLLQPPVRIVSQPQPARRLDPPSRFSGRNDRGDQVPNRKDDRSRERERERRRSRERSPQRKRSRERSPRRERERSPRRVRRVVPRYTVQFSKFSLDCPSCDMMELRRRYQNLYIPSDFFDAQFTWVDAFPLSRPFQLGNYCNFYVMHREVESLEKNMAILDPPDADHLYSAKVMLMASPSMEDLYHKSCALAEDPQELRDGFQHPARLVKFLVGMKGKDEAMAIGGHWSPSLDGPDPEKDPSVLIKTAIRCCKALTGIDLSVCTQWYRFAEIRYHRPEETHKGRTVPAHVETVVLFFPDVWHCLPTRSEWETLSRGYKQQLVEKLQGERKEADGEQDEEEKDDGEAKEISTPTHWSKLDPKTMKVNDLRKELESRALSSKGLKSQLIARLTKQLKVEEQKEEQKELEKSEKEEDEDDDRKSEDDKEEEERKRQEEIERQRRERRYILPDEPAIIVHPNWAAKSGKFDCSIMSLSVLLDYRLEDNKEHSFEVSLFAELFNEMLQRDFGVRIYKSLLSLPEKEDKKEKDKKSKKDERKDKKEERDDETDEPKPKRRKSGDDKDKKEDRDERKKEDKRKDDSKDDDETEEDNNQDEYDPMEAEEAEDEEDDRDEEEMTKRDDKRDINRYCKERPSKDKEKEKTQMITINRDLLMAFVYFDQSHCGYLLEKDLEEILYTLGLHLSRAQVKKLLNKVVLRESCFYRKLTDTSKDEENHEESESLQEDMLGNRLLLPTPTVKQESKDVEENVGLIVYNGAMVDVGSLLQKLEKSEKVRAEVEQKLQLLEEKTDEDEKTILNLENSNKSLSGELREVKKDLSQLQENLKISENMNLQFENQMNKTIRNLSTVMDEIHTVLKKDNVKNEDKDQKSKENGASV [CCAR1] | 50.9 °C | 50.8 °C | 0.0916 | 0.304 | 1.74 | -0.232 |
| MNFRQLLLHLPRYLGASGSPRRLWWSPSLDTISSVGSWRGRSSKSPAHWNQVVSEAEKIVGYPTSFMSLRCLLSDELSNIAMQVRKLVGTQHPLLTTARGLVHDSWNSLQLRGLVVLLISKAAGPSSVNTSCQNYDMVSGIYSCQRSLAEITELIHIALLVHRGIVNLNELQSSDGPLKDMQFGNKIAILSGDFLLANACNGLALLQNTKVVELLASALMDLVQGVYHENSTSKESYITDDIGISTWKEQTFLSHGALLAKSCQAAMELAKHDAEVQNMAFQYGKHMAMSHKINSDVQPFIKEKTSDSMTFNLNSAPVVLHQEFLGRDLWIKQIGEAQEKGRLDYAKLRERIKAGKGVTSAIDLCRYHGNKALEALESFPPSEARSALENIVFAVTRFS [PDSS2] | 53.5 °C | 54.1 °C | 0.169 | 0.42 | -0.202 | 0.217 |
| MRKRTEPVALEHERCAAAGSSSSGSAAAALDADCRLKQNLRLTGPAAAEPRCAADAGMKRALGRRKGVWLRLRKILFCVLGLYIAIPFLIKLCPGIQAKLIFLNFVRVPYFIDLKKPQDQGLNHTCNYYLQPEEDVTIGVWHTVPAVWWKNAQGKDQMWYEDALASSHPIILYLHGNAGTRGGDHRVELYKVLSSLGYHVVTFDYRGWGDSVGTPSERGMTYDALHVFDWIKARSGDNPVYIWGHSLGTGVATNLVRRLCERETPPDALILESPFTNIREEAKSHPFSVIYRYFPGFDWFFLDPITSSGIKFANDENVKHISCPLLILHAEDDPVVPFQLGRKLYSIAAPARSFRDFKVQFVPFHSDLGYRHKYIYKSPELPRILREFLGKSEPEHQH [ABHD12] | 53 °C | 54.9 °C | 0.0278 | 0.18 | -0.815 | 0.0996 |
| MMDIYVCLKRPSWMVDNKRMRTASNFQWLLSTFILLYLMNQVNSQKKGAPHDLKCVTNNLQVWNCSWKAPSGTGRGTDYEVCIENRSRSCYQLEKTSIKIPALSHGDYEITINSLHDFGSSTSKFTLNEQNVSLIPDTPEILNLSADFSTSTLYLKWNDRGSVFPHRSNVIWEIKVLRKESMELVKLVTHNTTLNGKDTLHHWSWASDMPLECAIHFVEIRCYIDNLHFSGLEEWSDWSPVKNISWIPDSQTKVFPQDKVILVGSDITFCCVSQEKVLSALIGHTNCPLIHLDGENVAIKIRNISVSASSGTNVVFTTEDNIFGTVIFAGYPPDTPQQLNCETHDLKEIICSWNPGRVTALVGPRATSYTLVESFSGKYVRLKRAEAPTNESYQLLFQMLPNQEIYNFTLNAHNPLGRSQSTILVNITEKVYPHTPTSFKVKDINSTAVKLSWHLPGNFAKINFLCEIEIKKSNSVQEQRNVTIKGVENSSYLVALDKLNPYTLYTFRIRCSTETFWKWSKWSNKKQHLTTEASPSKGPDTWREWSSDGKNLIIYWKPLPINEANGKILSYNVSCSSDEETQSLSEIPDPQHKAEIRLDKNDYIISVVAKNSVGSSPPSKIASMEIPNDDLKIEQVVGMGKGILLTWHYDPNMTCDYVIKWCNSSRSEPCLMDWRKVPSNSTETVIESDEFRPGIRYNFFLYGCRNQGYQLLRSMIGYIEELAPIVAPNFTVEDTSADSILVKWEDIPVEELRGFLRGYLFYFGKGERDTSKMRVLESGRSDIKVKNITDISQKTLRIADLQGKTSYHLVLRAYTDGGVGPEKSMYVVTKENSVGLIIAILIPVAVAVIVGVVTSILCYRKREWIKETFYPDIPNPENCKALQFQKSVCEGSSALKTLEMNPCTPNNVEVLETRSAFPKIEDTEIISPVAERPEDRSDAEPENHVVVSYCPPIIEEEIPNPAADEAGGTAQVIYIDVQSMYQPQAKPEEEQENDPVGGAGYKPQMHLPINSTVEDIAAEEDLDKTAGYRPQANVNTWNLVSPDSPRSIDSNSEIVSFGSPCSINSRQFLIPPKDEDSPKSNGGGWSFTNFFQNKPND [LIFR] | 54.8 °C | 55.1 °C | -0.094 | -3.21 | -1.95 | 0.206 |
| MELALRRSPVPRWLLLLPLLLGLNAGAVIDWPTEEGKEVWDYVTVRKDAYMFWWLYYATNSCKNFSELPLVMWLQGGPGGSSTGFGNFEEIGPLDSDLKPRKTTWLQAASLLFVDNPVGTGFSYVNGSGAYAKDLAMVASDMMVLLKTFFSCHKEFQTVPFYIFSESYGGKMAAGIGLELYKAIQRGTIKCNFAGVALGDSWISPVDSVLSWGPYLYSMSLLEDKGLAEVSKVAEQVLNAVNKGLYREATELWGKAEMIIEQNTDGVNFYNILTKSTPTSTMESSLEFTQSHLVCLCQRHVRHLQRDALSQLMNGPIRKKLKIIPEDQSWGGQATNVFVNMEEDFMKPVISIVDELLEAGINVTVYNGQLDLIVDTMGQEAWVRKLKWPELPKFSQLKWKALYSDPKSLETSAFVKSYKNLAFYWILKAGHMVPSDQGDMALKMMRLVTQQE [SCPEP1] | 56.9 °C | 55.6 °C | 0.202 | -2.33 | -0.14 | 0.402 |
| MAAQCVTKVALNVSCANLLDKDIGSKSDPLCVLFLNTSGQQWYEVERTERIKNCLNPQFSKTFIIDYYFEVVQKLKFGVYDIDNKTIELSDDDFLGECECTLGQIVSSKKLTRPLVMKTGRPAGKGSITISAEEIKDNRVVLFEMEARKLDNKDLFGKSDPYLEFHKQTSDGNWLMVHRTEVVKNNLNPVWRPFKISLNSLCYGDMDKTIKVECYDYDNDGSHDLIGTFQTTMTKLKEASRSSPVEFECINEKKRQKKKSYKNSGVISVKQCEITVECTFLDYIMGGCQLNFTVGVDFTGSNGDPRSPDSLHYISPNGVNEYLTALWSVGLVIQDYDADKMFPAFGFGAQIPPQWQVSHEFPMNFNPSNPYCNGIQGIVEAYRSCLPQIKLYGPTNFSPIINHVARFAAAATQQQTASQYFVLLIITDGVITDLDETRQAIVNASRLPMSIIIVGVGGADFSAMEFLDGDGGSLRSPLGEVAIRDIVQFVPFRQFQNAPKEALAQCVLAEIPQQVVGYFNTYKLLPPKNPATKQQKQ [CPNE3] | 50.8 °C | 50.8 °C | -0.146 | 1.91 | -0.0585 | -0.0447 |
| MGFGDLKSPAGLQVLNDYLADKSYIEGYVPSQADVAVFEAVSSPPPADLCHALRWYNHIKSYEKEKASLPGVKKALGKYGPADVEDTTGSGATDSKDDDDIDLFGSDDEEESEEAKRLREERLAQYESKKAKKPALVAKSSILLDVKPWDDETDMAKLEECVRSIQADGLVWGSSKLVPVGYGIKKLQIQCVVEDDKVGTDMLEEQITAFEDYVQSMDVAAFNKI [EEF1B2] | 50.7 °C | 50.6 °C | 0.236 | -1.43 | -1.91 | 0.522 |
| MRWGHHLPRASWGSGFRRALQRPDDRIPFLIHWSWPLQGERPFGPPRAFIRHHGSSVDSAPPPGRHGRLFPSASATEAIQRHRRNLAEWFSRLPREERQFGPTFALDTVHVDPVIRESTPDELLRPPAELALEHQPPQAGLPPLALSQLFNPDACGRRVQTVVLYGTVGTGKSTLVRKMVLDWCYGRLPAFELLIPFSCEDLSSLGPAPASLCQLVAQRYTPLKEVLPLMAAAGSHLLFVLHGLEHLNLDFRLAGTGLCSDPEEPQEPAAIIVNLLRKYMLPQASILVTTRPSAIGRIPSKYVGRYGEICGFSDTNLQKLYFQLRLNQPYCGYAVGGSGVSATPAQRDHLVQMLSRNLEGHHQIAAACFLPSYCWLVCATLHFLHAPTPAGQTLTSIYTSFLRLNFSGETLDSTDPSNLSLMAYAARTMGKLAYEGVSSRKTYFSEEDVCGCLEAGIRTEEEFQLLHIFRRDALRFFLAPCVEPGRAGTFVFTVPAMQEYLAALYIVLGLRKTTLQKVGKEVAELVGRVGEDVSLVLGIMAKLLPLRALPLLFNLIKVVPRVFGRMVGKSREAVAQAMVLEMFREEDYYNDDVLDQMGASILGVEGPRRHPDEPPEDEVFELFPMFMGGLLSAHNRAVLAQLGCPIKNLDALENAQAIKKKLGKLGRQVLPPSELLDHLFFHYEFQNQRFSAEVLSSLRQLNLAGVRMTPVKCTVVAAVLGSGRHALDEVNLASCQLDPAGLRTLLPVFLRARKLGLQLNSLGPEACKDLRDLLLHDQCQITTLRLSNNPLTAAGVAVLMEGLAGNTSVTHLSLLHTGLGDEGLELLAAQLDRNRQLQELNVAYNGAGDTAALALARAAREHPSLELLHLYFNELSSEGRQVLRDLGGAAEGGARVVVSLTEGTAVSEYWSVILSEVQRNLNSWDRARVQRHLELLLRDLEDSRGATLNPWRKAQLLRVEGEVRALLEQLGSSGS [NLRX1] | 54.3 °C | 54.7 °C | 0.0927 | -0.577 | -2.13 | -0.273 |
| MLAVHFDKPGGPENLYVKEVAKPSPGEGEVLLKVAASALNRADLMQRQGQYDPPPGASNILGLEASGHVAELGPGCQGHWKIGDTAMALLPGGGQAQYVTVPEGLLMPIPEGLTLTQAAAIPEAWLTAFQLLHLVGNVQAGDYVLIHAGLSGVGTAAIQLTRMAGAIPLVTAGSQKKLQMAEKLGAAAGFNYKKEDFSEATLKFTKGAGVNLILDCIGGSYWEKNVNCLALDGRWVLYGLMGGGDINGPLFSKLLFKRGSLITSLLRSRDNKYKQMLVNAFTEQILPHFSTEGPQRLLPVLDRIYPVTEIQEAHKYMEANKNIGKIVLELPQ [TP53I3] | 58.7 °C | 57.3 °C | -0.199 | -2.64 | -1.51 | 0.373 |
| MDLLFGRRKTPEELLRQNQRALNRAMRELDRERQKLETQEKKIIADIKKMAKQGQMDAVRIMAKDLVRTRRYVRKFVLMRANIQAVSLKIQTLKSNNSMAQAMKGVTKAMGTMNRQLKLPQIQKIMMEFERQAEIMDMKEEMMNDAIDDAMGDEEDEEESDAVVSQVLDELGLSLTDELSNLPSTGGSLSVAAGGKKAEAAASALADADADLEERLKNLRRD [CHMP2A] | 53 °C | 54.4 °C | 0.0293 | 0.326 | 0.533 | 0.537 |
| TANC1 | 50.1 °C | 50.7 °C | -0.166 | -0.0485 | 0.875 | -0.0445 |
